Data as given in US20250115641A1 (published 2025).
Bridge positions count the residues as written; N and C are the ends. Square brackets hold non-standard residues; d marks the D form. Primed or numbered codes have the meaning given here. S5 = C=CCCC[C@](C)(N)C(=O)O; Nle = CCCC[C@H](N)C(=O)O; FITC′ = fluorescein; βAla = NCCC(=O)O

Experiments:
[1] = target: T1, human N-terminally GST tagged ASC^PYD (human, UniProt Q9ULZ3 1-106); assay: FP
[2] = target: GST-NLRP3PYD; assay: fluorescence anisotropy
[3] = target: T1, human N-terminally GST tagged ASC^PYD; assay: fluorescence anisotropy
[4] = target: T2, human NLRP3^PYD (residues 3-110, C-terminal 6 x histidine) (human, UniProt Q96P20 3-110); assay: FP
T2 chain: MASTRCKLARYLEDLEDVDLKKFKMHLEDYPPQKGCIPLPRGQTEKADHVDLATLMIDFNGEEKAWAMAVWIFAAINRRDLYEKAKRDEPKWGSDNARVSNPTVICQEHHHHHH

T1 sequence (Q9ULZ3 1-106): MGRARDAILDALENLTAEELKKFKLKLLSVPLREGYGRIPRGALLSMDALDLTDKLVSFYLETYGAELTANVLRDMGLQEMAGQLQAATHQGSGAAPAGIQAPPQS

B1: fSAH-POP1-5 (peptide)
peptide: AQXLKKXKXKLGTA
modifications: N-terminal fluorescein (FITC) on β-alanine; S5 = (S)-2-(4-pentenyl)alanine residues covalently linked (hydrocarbon staple); made on Rink amide resin
With B1 the Kd [1] was over 10 µM, the Kd [2] was 30 µM and the Kd [3] was over 56 µM.

B2: fSAH-POP1-6 (peptide)
peptide: XQXLKKXKXKLWTA
modifications: N-terminal fluorescein (FITC) on β-alanine; S5 = (S)-2-(4-pentenyl)alanine residues covalently linked (hydrocarbon staple); made on Rink amide resin
In the case of B2, the Kd [2] is reported as 43 µM and the Kd [3] is reported as over 56 µM.

B3: fSAH-POP1-13 (peptide)
peptide: {FITC′}-[βAla]Q[S5]LRR[S5]QWKLWTA-NH2
modifications: staple 3-7
B3 gave a Kd [2] of 12 µM.

B4: fSAH-POP1-12 (peptide)
peptide: {FITC′}-[βAla]Q[S5]LRK[S5]QWKLWTA-NH2
modifications: staple 3-7
Binder B4 has a Kd [1] of 0.59 µM and a Kd [2] of 20 µM.

B5: fPOP1-H2 (peptide)
peptide: {FITC′}-[βAla]EELKKFK[Nle]KLGTV-NH2
Work on B5 yielded a Kd [4] of 9.2 µM, a Kd [1] of over 10 µM and a Kd [2] of 27 µM. For the same binder, the Kd [3] was over 56 µM.

B6: fSAH-POP1-4 (peptide)
peptide: AEXLKKXKXKLGTV
modifications: N-terminal fluorescein (FITC) on β-alanine; S5 = (S)-2-(4-pentenyl)alanine residues covalently linked (hydrocarbon staple); made on Rink amide resin
B6 showed a Kd [1] of over 10 µM, a Kd [2] of 32 µM and a Kd [3] of over 56 µM.

B7: fSAH-POP1-10 (peptide)
peptide: AQXLRKXQXKLWTA
modifications: not fully specified; N-terminal fluorescein (FITC) on β-alanine; S5 = (S)-2-(4-pentenyl)alanine residues covalently linked (hydrocarbon staple); norleucine (NL) at the position of M25 of POP1; made on Rink amide resin
B7 was tested, and the Kd [2] was 31 µM and the Kd [3] was over 56 µM.

B8: fSAH-POP1-16 (peptide)
peptide: {FITC′}-[βAla]Q[S5]LRR[S5]QWKLWTS-NH2
modifications: staple 3-7
B8 showed a Kd [2] of 15 µM.
